Measured values from patent US20160333422A1 (UNITED STATES OF AMERICA AS REPRESENTED BY THE SECRETARY …, published 2016).

T1: NY-BR-1 expressed from a transfected vector/plasmid in target cells (Homo sapiens (Human), UniProt Q9BXX3 1-1397)
T1 sequence: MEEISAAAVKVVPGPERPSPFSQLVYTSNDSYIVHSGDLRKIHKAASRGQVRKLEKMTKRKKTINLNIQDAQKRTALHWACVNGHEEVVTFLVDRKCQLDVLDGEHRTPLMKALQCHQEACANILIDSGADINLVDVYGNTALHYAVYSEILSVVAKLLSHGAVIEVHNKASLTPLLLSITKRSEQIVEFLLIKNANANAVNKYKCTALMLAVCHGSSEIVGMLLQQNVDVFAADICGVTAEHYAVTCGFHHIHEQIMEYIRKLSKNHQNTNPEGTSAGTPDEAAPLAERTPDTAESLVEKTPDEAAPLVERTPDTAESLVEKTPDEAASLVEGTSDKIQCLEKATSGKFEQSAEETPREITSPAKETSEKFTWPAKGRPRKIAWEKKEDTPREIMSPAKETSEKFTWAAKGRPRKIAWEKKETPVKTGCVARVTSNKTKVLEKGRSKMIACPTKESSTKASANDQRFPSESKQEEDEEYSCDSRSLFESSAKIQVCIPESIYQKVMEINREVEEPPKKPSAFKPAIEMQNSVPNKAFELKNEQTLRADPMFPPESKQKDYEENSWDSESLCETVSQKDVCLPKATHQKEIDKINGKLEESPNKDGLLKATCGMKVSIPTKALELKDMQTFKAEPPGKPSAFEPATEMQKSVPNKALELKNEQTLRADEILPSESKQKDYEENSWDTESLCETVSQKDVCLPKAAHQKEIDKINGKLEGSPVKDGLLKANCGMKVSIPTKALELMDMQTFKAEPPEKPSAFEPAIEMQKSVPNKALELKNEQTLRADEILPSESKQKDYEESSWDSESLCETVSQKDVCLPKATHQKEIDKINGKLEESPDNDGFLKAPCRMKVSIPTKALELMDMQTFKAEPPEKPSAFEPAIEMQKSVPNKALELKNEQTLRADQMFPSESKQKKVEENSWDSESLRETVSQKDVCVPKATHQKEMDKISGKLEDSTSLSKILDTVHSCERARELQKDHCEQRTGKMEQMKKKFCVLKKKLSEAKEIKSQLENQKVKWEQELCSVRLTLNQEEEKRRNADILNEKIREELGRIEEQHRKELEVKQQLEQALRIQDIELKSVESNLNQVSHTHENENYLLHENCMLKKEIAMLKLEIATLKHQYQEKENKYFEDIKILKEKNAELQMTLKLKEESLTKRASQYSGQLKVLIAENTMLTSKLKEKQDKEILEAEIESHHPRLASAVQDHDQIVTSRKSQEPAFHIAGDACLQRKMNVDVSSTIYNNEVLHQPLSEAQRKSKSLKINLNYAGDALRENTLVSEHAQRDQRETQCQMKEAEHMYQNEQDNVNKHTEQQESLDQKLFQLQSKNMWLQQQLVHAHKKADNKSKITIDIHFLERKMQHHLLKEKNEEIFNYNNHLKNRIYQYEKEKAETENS

B1: second generation anti-NY-BR-1 CAR (NYBR1-28Z) (other)
chain: VQLQESGPDLVKPSQSLSLTCTVTGYSITSGYSWHWIRQFPGNKLEWMGYIHYSGDTDYNPSLKSRFSITRDTSKNQFFLQLNSVTTEDTATYYCATPGGFVYWGQGTLVTVSAGGGGSGGGGSGGGGSDVVMTQTPLTLSVTIGQPASISCKSSQSLLDSDGKTYLHWLLQRPGQSPKRLIFLVSKLDSGVPDRFTGSGSGTDFTLKISRVEAEDLGVYYCWQGTHFPQTFGGGTKLEIKAAAIEVMYPPPYLDNEKSNGTIIHVKGKHLCPSPLFPGPSKPFWVLVVVGGVLACYSLLVTVAFIIFWVRSKRSRLLHSDYMNMTPRRPGPTRKHYQPYAPPRDFAAYRSRVKFSRSADAPAYQQGQNQLYNELNLGRREEYDVLDKRRGRDPEMGGKPRRKNPQEGLYNELQKDKMAEAYSEIGMKGERRRGKGHDGLYQGLSTATKDTYDALHMQALPPR
B2: third generation anti-NY-BR-1 CAR (NYBR1-28BBZ) (other)
chain: VQLQESGPDLVKPSQSLSLTCTVTGYSITSGYSWHWIRQFPGNKLEWMGYIHYSGDTDYNPSLKSRFSITRDTSKNQFFLQLNSVTTEDTATYYCATPGGFVYWGQGTLVTVSAGGGGSGGGGSGGGGSDVVMTQTPLTLSVTIGQPASISCKSSQSLLDSDGKTYLHWLLQRPGQSPKRLIFLVSKLDSGVPDRFTGSGSGTDFTLKISRVEAEDLGVYYCWQGTHFPQTFGGGTKLEIKAAAFVPVFLPAKPTTTPAPRPPTPAPTIASQPLSLRPEACRPAAGGAVHTRGLDFACDIYIWAPLAGTCGVLLLSLVITLYCNHRNRSKRSRLLHSDYMNMTPRRPGPTRKHYQPYAPPRDFAAYRSRFSVVKRGRKKLLYIFKQPFMRPVQTTQEEDGCSCRFPEEEEGGCELRVKFSRSADAPAYQQGQNQLYNELNLGRREEYDVLDKRRGRDPEMGGKPRRKNPQEGLYNELQKDKMAEAYSEIGMKGERRRGKGHDGLYQGLSTATKDTYDALHMQALPPR
B3: fourth generation anti-NY-BR-1 CAR (NYBR1 ScFv BBZ) (other)
chain: VQLQESGPDLVKPSQSLSLTCTVTGYSITSGYSWHWIRQFPGNKLEWMGYIHYSGDTDYNPSLKSRFSITRDTSKNQFFLQLNSVTTEDTATYYCATPGGFVYWGQGTLVTVSAGGGGSGGGGSGGGGSDVVMTQTPLTLSVTIGQPASISCKSSQSLLDSDGKTYLHWLLQRPGQSPKRLIFLVSKLDSGVPDRFTGSGSGTDFTLKISRVEAEDLGVYYCWQGTHFPQTFGGGTKLEIKAAAFVPVFLPAKPTTTPAPRPPTPAPTIASQPLSLRPEACRPAAGGAVHTRGLDFACDIYIWAPLAGTCGVLLLSLVITLYCNHRNRFSVVKRGRKKLLYIFKQPFMRPVQTTQEEDGCSCRFPEEEEGGCELRVKFSRSADAPAYQQGQNQLYNELNLGRREEYDVLDKRRGRDPEMGGKPRRKNPQEGLYNELQKDKMAEAYSEIGMKGERRRGKGHDGLYQGLSTATKDTYDALHMQALPPR

Each binder was assayed against NYBR1.1, an isoform of NYBR1, expressed from a plasmid in Cos7 cells, Q9BXX2 (assay: cell-based or functional assay).
Sequence of NYBR1.1, an isoform of NYBR1, expressed from a plasmid in Cos7 cells, Q9BXX2 (Q9BXX2 whole entry, canonical isoform): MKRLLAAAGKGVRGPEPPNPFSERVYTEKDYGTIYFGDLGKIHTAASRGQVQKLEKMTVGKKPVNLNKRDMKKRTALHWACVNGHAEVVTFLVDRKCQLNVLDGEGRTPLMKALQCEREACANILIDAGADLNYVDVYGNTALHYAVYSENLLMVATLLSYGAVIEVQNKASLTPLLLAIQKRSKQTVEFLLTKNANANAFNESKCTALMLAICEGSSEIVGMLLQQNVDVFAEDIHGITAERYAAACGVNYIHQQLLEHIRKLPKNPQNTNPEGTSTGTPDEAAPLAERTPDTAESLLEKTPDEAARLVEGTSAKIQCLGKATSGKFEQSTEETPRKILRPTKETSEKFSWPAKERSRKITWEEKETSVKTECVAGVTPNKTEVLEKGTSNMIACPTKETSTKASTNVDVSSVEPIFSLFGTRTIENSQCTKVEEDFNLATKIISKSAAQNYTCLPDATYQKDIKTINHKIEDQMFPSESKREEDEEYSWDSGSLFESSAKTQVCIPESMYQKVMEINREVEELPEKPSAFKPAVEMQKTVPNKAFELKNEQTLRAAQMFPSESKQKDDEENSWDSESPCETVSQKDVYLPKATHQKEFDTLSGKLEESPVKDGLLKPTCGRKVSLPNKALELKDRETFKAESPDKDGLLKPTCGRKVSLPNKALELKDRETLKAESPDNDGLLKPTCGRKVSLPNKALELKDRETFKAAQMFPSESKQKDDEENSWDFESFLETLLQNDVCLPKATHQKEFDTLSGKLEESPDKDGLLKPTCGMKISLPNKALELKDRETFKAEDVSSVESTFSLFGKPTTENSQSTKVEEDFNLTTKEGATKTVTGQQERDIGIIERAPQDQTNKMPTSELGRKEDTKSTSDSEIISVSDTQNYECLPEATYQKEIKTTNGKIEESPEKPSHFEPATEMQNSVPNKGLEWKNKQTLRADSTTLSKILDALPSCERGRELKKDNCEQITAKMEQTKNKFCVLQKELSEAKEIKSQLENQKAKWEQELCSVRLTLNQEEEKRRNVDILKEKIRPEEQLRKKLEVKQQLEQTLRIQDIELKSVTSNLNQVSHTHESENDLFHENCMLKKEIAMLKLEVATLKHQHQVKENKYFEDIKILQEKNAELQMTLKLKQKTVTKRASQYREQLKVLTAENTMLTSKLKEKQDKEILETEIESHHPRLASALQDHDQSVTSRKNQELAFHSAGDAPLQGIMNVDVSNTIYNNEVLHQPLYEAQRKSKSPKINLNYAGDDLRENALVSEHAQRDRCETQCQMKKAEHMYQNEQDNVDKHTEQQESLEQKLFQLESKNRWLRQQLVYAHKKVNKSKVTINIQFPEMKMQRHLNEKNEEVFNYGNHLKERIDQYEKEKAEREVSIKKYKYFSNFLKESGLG
For B1, the IFN-γ secretion (pg/ml) upon co-culture with Cos7 cell line transfected with plasmid NYBR 1.1; Patient 5 was 153 pg/mL, the IFN-γ secretion (pg/ml) upon co-culture with Cos7 cell line transfected with plasmid NYBR 1.1; Patient 6 was 51 pg/mL and the IFN-γ secretion (pg/ml) upon co-culture with Cos7 cell line transfected with plasmid NYBR 1.1; Patient 7 was 518 pg/mL.
With B2 the IFN-γ secretion (pg/ml) upon co-culture with Cos7 cell line transfected with plasmid NYBR 1.1; Patient 5 was 0 pg/mL, the IFN-γ secretion (pg/ml) upon co-culture with Cos7 cell line transfected with plasmid NYBR 1.1; Patient 6 was 14 pg/mL and the IFN-γ secretion (pg/ml) upon co-culture with Cos7 cell line transfected with plasmid NYBR 1.1; Patient 7 was 26 pg/mL.
With B3 the IFN-γ secretion (pg/ml) upon co-culture with Cos7 cell line transfected with plasmid NYBR 1.1; Patient 5 was 527 pg/mL, the IFN-γ secretion (pg/ml) upon co-culture with Cos7 cell line transfected with plasmid NYBR 1.1; Patient 6 was 411 pg/mL and the IFN-γ secretion (pg/ml) upon co-culture with Cos7 cell line transfected with plasmid NYBR 1.1; Patient 7 was 1260 pg/mL.

The binders below were run against T1, NY-BR-1 expressed from a transfected … (assay: cell-based or functional assay).
With B1 the “IFN-γ secretion (pg/ml) upon co-culture with Cos7 cell line transfected with plasmid NYBR1; Patient 5” value (from here on “IFN-γ secretion … with plasmid NYBR1; Patient 5”) was 1110 pg/mL, the “IFN-γ secretion (pg/ml) upon co-culture with Cos7 cell line transfected with plasmid NYBR1; Patient 6” value (“IFN-γ secretion … with plasmid NYBR1; Patient 6” below) was 555 pg/mL and the “IFN-γ secretion (pg/ml) upon co-culture with Cos7 cell line transfected with plasmid NYBR1; Patient 7” value (shortened to “IFN-γ secretion … with plasmid NYBR1; Patient 7”) was 3590 pg/mL.
In the case of B2, the “IFN-γ secretion … with plasmid NYBR1; Patient 5” value is reported as 51 pg/mL, the “IFN-γ secretion … with plasmid NYBR1; Patient 6” value is reported as 48 pg/mL and the “IFN-γ secretion … with plasmid NYBR1; Patient 7” value is reported as 71 pg/mL.
With B3 the “IFN-γ secretion … with plasmid NYBR1; Patient 5” value was 1620 pg/mL, the “IFN-γ secretion … with plasmid NYBR1; Patient 6” value was 929 pg/mL and the “IFN-γ secretion … with plasmid NYBR1; Patient 7” value was 3290 pg/mL.
